This is an account of results in article PMC5036196, “Structural and histone binding ability characterization of the ARB2 domain of a histone deacetylase Hda1 from Saccharomyces cerevisiae” (Scientific Reports, 2016).

Data set [1] deals with the molecule itself. Description: SEC; Superdex 200 10/300 GL, 0.5 ml/min, 25 mM Tris-HCl pH 7.5, 200 mM NaCl; apparent molecular mass against standard proteins. On the technique in general: In gel filtration, larger molecules generally elute earlier.
In data set [2] the target is yeast histone H3-H4 tetramer (Saccharomyces cerevisiae, UniProt P61830 1-136; P02309 1-103). Put plainly: ITC; ITC200 at 20 °C; 0.5 mM ARB2 or mutant in the injector, 0.2 mM H2A/B or 0.25 mM H3/4 in the sample cell; 25 mM Tris-HCl pH 7.5, 200 mM NaCl; single-site fitting model. As to conditions: both partners purified. Background: ITC needs no label: the signal is the heat of the interaction.

B1: ARB2 domain of Hda1 (Hda1^457–698) (domain or fragment, Saccharomyces cerevisiae, UniProt P53973 457-698, looked up)
chain: LQKAIRQQQQHYLSDEFNFVTLPLVSMDLPDNTVLCTPNISESNTIIIVVHDTSDIWAKRNVISGTIDLSSSVIIDNSLDFIKWGLDRKYGIIDVNIPLTLFEPDNYSGMITSQEVLIYLWDNYIKYFPSVAKIAFIGIGDSYSGIVHLLGHRDTRAVTKTVINFLGDKQLKPLVPLVDETLSEWYFKNSLIFSNNSHQCWKENESRKPRKKFGRVLRCDTDGLNNIIEERFEEATDFILDS
notes: Hda1 (histone deacetylase), S. cerevisiae, C-terminal ARB2 domain, residues 457-698; Homodimer in the crystal (symmetry-related molecules) and by size-exclusion chromatography; A selenomethionine derivative was used for phasing only; also called Native-Hda1^457–698; wild-type ARB2 domain; source: E. coli BL21 (DE3), purified (Ni-NTA, HiTrap Q FF, Superdex 200)
In the case of B1, the “stoichiometry N” value in data set [1] stood at 2. Also, in data set [2], binding was put at a Kd of 3.24 ± 0.49 µM, the dH is -33.9 kcal/mol and the “stoichiometry N” value stood at 1.52.

B2: ARB2-M1 (residues Gln463, His467 and Asp471 mutated to Ala) (domain or fragment, Saccharomyces cerevisiae, UniProt P53973 457-698, looked up)
chain: LQKAIRAQQQAYLSAEFNFVTLPLVSMDLPDNTVLCTPNISESNTIIIVVHDTSDIWAKRNVISGTIDLSSSVIIDNSLDFIKWGLDRKYGIIDVNIPLTLFEPDNYSGMITSQEVLIYLWDNYIKYFPSVAKIAFIGIGDSYSGIVHLLGHRDTRAVTKTVINFLGDKQLKPLVPLVDETLSEWYFKNSLIFSNNSHQCWKENESRKPRKKFGRVLRCDTDGLNNIIEERFEEATDFILDS
notes: Hda1, S. cerevisiae, ARB2 domain, residues 457-698, with three substitutions around the groove; source: E. coli BL21 (DE3), purified (Ni-NTA, HiTrap Q FF, Superdex 200)
Regarding B2, in data set [2], binding was put at a Kd of 9.84 ± 1.48 µM, the dH was -7.63 kcal/mol and the “stoichiometry N” value was determined as 0.78.

B3: ARB2-M3 (residues Val481, Ser482, Met483 and Asp484 mutated to Ala) (domain or fragment, Saccharomyces cerevisiae, UniProt P53973 457-698, looked up)
chain: LQKAIRQQQQHYLSDEFNFVTLPLAAAALPDNTVLCTPNISESNTIIIVVHDTSDIWAKRNVISGTIDLSSSVIIDNSLDFIKWGLDRKYGIIDVNIPLTLFEPDNYSGMITSQEVLIYLWDNYIKYFPSVAKIAFIGIGDSYSGIVHLLGHRDTRAVTKTVINFLGDKQLKPLVPLVDETLSEWYFKNSLIFSNNSHQCWKENESRKPRKKFGRVLRCDTDGLNNIIEERFEEATDFILDS
notes: Hda1, S. cerevisiae, ARB2 domain, residues 457-698, with four substitutions around the groove; source: E. coli BL21 (DE3), purified (Ni-NTA, HiTrap Q FF, Superdex 200)
With B3, in data set [2], the affinity, expressed as Kd, was 8.19 ± 0.72 µM; the dH was -20.2 kcal/mol; the “stoichiometry N” value was found to be 0.9.

B4: ARB2-M2 (residues Tyr468 and Glu472 mutated to Ala) (domain or fragment, Saccharomyces cerevisiae, UniProt P53973 457-698, looked up)
chain: LQKAIRQQQQHALSDAFNFVTLPLVSMDLPDNTVLCTPNISESNTIIIVVHDTSDIWAKRNVISGTIDLSSSVIIDNSLDFIKWGLDRKYGIIDVNIPLTLFEPDNYSGMITSQEVLIYLWDNYIKYFPSVAKIAFIGIGDSYSGIVHLLGHRDTRAVTKTVINFLGDKQLKPLVPLVDETLSEWYFKNSLIFSNNSHQCWKENESRKPRKKFGRVLRCDTDGLNNIIEERFEEATDFILDS
notes: Hda1, S. cerevisiae, ARB2 domain, residues 457-698, with two substitutions around the groove; source: E. coli BL21 (DE3), purified (Ni-NTA, HiTrap Q FF, Superdex 200)
B4: in data set [2], the Kd was 6.93 ± 1.24 µM, the dH was -24.1 kcal/mol and the “stoichiometry N” value worked out at 1.1.

In general, stoichiometry N refers to a count of units in the complex or per binding partner. One may read the Kd as the constant that tells how readily two partners part at equilibrium. Low readings indicate higher affinity, high ones lower affinity.
